The results in this text go back to publication PMC12229972 (EJNMMI Radiopharmacy and Chemistry, 2025).

A short description of data set [1]: dynamic PET/CT imaging after cisterna magna infusion. Type of data set: in vivo, Sprague–Dawley rats. The note with it: rats.
Data set [2] in a line: dynamic PET/CT imaging after lumbar infusion. Type of data set: in vivo, Sprague–Dawley rats. The following applies: rats.

As to “Al[^18F]F-7: aluminum [18F]fluoride restrained complexing agent (RESCA) conjugated rat serum albumin (RSA) reference tracer”, the “Cmax (maximum SUV), cervical and thoracic (T1-T2) vertebra (spinal canal)” value in data set [1] (geometric mean (CV), listed as 7) is 4.5(17%) SUV. The “tmax, cisterna magna” value in data set [1] (median(range)) was 20(0) min. Besides, the “Cmax, intracranial space (ICS)” value in data set [2] is on record as 0.27 %ID. Also, the “tmax, lumbar vertebra L1-L2” value in data set [2] (median(range)) is recorded as 25(35) min.
